Target: PML protein (UniProt P29590)
Experiment: co-immunoprecipitation (anti-HA IP, anti-PML immunoblot, densitometry)
Conditions: HepaRG cells transfected with 10 μg plasmid; lysates prepared 48 h posttransfection; two independent experiments; parent: est. 7.8; read off a plot

Chain of UniProt P29590 (P29590 whole entry): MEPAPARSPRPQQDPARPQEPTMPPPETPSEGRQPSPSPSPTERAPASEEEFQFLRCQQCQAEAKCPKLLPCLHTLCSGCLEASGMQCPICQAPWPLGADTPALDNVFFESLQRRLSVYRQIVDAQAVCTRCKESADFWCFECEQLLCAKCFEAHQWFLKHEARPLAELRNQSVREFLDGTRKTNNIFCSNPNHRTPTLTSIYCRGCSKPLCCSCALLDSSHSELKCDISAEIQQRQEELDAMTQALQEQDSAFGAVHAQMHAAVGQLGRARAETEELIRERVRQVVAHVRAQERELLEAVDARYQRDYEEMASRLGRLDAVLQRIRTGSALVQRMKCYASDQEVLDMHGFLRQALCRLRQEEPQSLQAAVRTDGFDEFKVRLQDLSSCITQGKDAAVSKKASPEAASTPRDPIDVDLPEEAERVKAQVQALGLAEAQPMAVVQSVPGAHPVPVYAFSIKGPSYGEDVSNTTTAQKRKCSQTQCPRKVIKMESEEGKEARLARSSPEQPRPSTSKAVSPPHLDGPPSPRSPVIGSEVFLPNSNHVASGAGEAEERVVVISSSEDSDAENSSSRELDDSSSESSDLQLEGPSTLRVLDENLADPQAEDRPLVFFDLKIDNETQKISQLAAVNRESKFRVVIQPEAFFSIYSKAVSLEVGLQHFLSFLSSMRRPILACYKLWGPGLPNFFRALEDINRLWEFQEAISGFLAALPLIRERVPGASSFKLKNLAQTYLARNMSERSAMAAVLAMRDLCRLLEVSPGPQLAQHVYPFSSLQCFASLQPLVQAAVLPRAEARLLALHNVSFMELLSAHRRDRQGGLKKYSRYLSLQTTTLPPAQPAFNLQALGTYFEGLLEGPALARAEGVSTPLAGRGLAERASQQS

HA-tagged wild-type HBV core protein (pCore-HA wt) K7R; K96R
response (% input of PML co-IP): 0.1

— PMC10269885
